According to the MegaScale stability set (Tsuboyama et al. 2023):

B1: HEEH_KT_rd6_0790 (parent)
chain: SEEEEEEWRRAKERGEEIIILGILWKPNDEEAERRIKEALRRV

Variants of: B1
Experiment: folding stability dG (cDNA display proteolysis); higher = more stable
Details: PBS, room temperature

Folding stability dG [kcal/mol]: each site, then its substitutions
E13: I 2.04; K 1.86; L 2.4; M 2.23; N 1.69; P 0.785; Q 2.15; R 1.77; S 2.1; T 1.77; V 1.94; W 1.78; Y 1.78
R14: A 2.04; D 1.49; E 1.68; F 1.67; G 1.42; H 1.67; I 1.92; K 2.12; L 2.05; M 1.88; N 1.97; P 1.09; Q 1.83; S 1.92; T 1.79; V 1.76; W 1.58; Y 1.68
G15: A 1.39; C 2.43; D 1.25; E 1.5; F 1.57; H 1.53; I 1.34; K 1.6; L 1.6; M 1.66; N 1.9; P 1.03; Q 1.81; R 1.66; S 1.61; T 1.18; V 1.32; W 1.68; Y 1.44
E16: A 1.7; D 1.95; F 2.04; G 1.61; H 1.93; I 2.21; K 1.96; L 2.28; M 1.93; N 1.71; P 1.15; Q 2.05; R 1.66; S 1.94; T 1.94; V 2.15; W 2.03; Y 1.9
E17: A 2.12; C 2.35; D 1.81; F 1.92; G 1.53; H 1.89; I 1.94; K 1.74; L 1.89; M 2.02; N 1.95; P 2.5; Q 2.02; R 1.7; S 2.18; T 2.16; V 2.08; W 2.29; Y 1.91
I18: A 1.59; C 2.38; D 0.812; E 0.975; F 2.1; G 0.605; H 1.29; K 1.68; L 1.39; M 1.42; N 1.06; P 0.472; Q 1.3; R 1.3; S 1.17; T 1.84; V 2.15; W 1.67; Y 1.86
I19: A 1.33; D 0.997; E 1.85; F 2.08; G 1.01; H 1.43; K 1.49; L 2.12; M 2.01; N 1.55; P 0.976; Q 1.69; R 1.77; S 1.52; T 2.14; V 2.17; W 2.53; Y 2.2
I20: A 0.825; C 2.07; D 0.628; E 0.692; F 2.27; G 0.748; H 0.981; K 0.813; L 1.35; M 1.28; N 0.804; P 0.587; Q 0.945; R 1.08; S 0.816; T 0.843; V 1.84; W 1.17; Y 1.5
L21: A 1.84; D 1.04; E 1.28; F 1.97; G 1.27; H 1.88; I 1.47; K 1.66; M 2.35; N 1.24; P 0.723; Q 1.84; R 2.07; S 1.24; T 1.04; V 1.34; W 1.26; Y 1.45
G22: A 1.37; D 1.29; E 1.12; F 2.59; H 1.1; I 2.28; K 0.815; L 2.12; M 2.3; N 1.18; P 0.681; Q 1.15; R 0.712; S 1.19; T 1.4; V 2.1; W 1.93; Y 1.98
I23: A 0.977; D 0.764; E 0.981; F 1.26; G 0.931; H 1.2; K 1.08; L 1.46; M 1.08; N 0.85; P 0.9; Q 0.969; R 0.853; S 0.659; T 1.16; V 1.55; W 0.765; Y 0.775
L24: A 1.53; D 0.729; E 1.29; F 1.64; G 0.898; H 1.75; I 1.69; K 2.14; M 1.79; N 1.34; P 1.39; Q 1.66; R 1.95; S 1.67; T 1.75; V 1.79; W 1.26; Y 1.72
W25: A 0.981; C 1.26; D 0.518; E 0.532; F 1.4; G 0.809; H 0.716; I 1.01; K 0.664; L 0.939; M 0.967; N 0.423; P 0.549; Q 0.568; R 0.67; S 0.662; T 0.615; V 0.885; Y 1.25
K26: A 1.87; D 1.26; E 1.26; F 1.51; G 1.52; H 1.46; I 2.02; L 1.65; M 1.7; N 1.6; P 1.26; Q 1.64; R 2.4; S 1.99; T 2.12; V 2.06; W 1.53; Y 1.51
P27: A 1.13; C 2.1; D 1.35; E 1.37; F 1.41; G 1.21; H 0.914; I 1.27; K 1.12; L 1.15; M 1.18; N 1.22; Q 1.2; R 0.846; S 1.02; T 1.16; V 1.2; W 1.42; Y 1.22
N28: A 1.67; D 2.19; E 1.84; F 2.1; G 2.81; H 1.97; I 0.872; K 1.45; L 1.61; M 1.77; P 1.34; Q 1.82; R 1.71; S 1.62; T 1.38; V 1.1; W 2.05; Y 1.9
D29: A 1.25; E 1.06; F 1.28; G 1; H 1.28; I 0.872; K 0.951; L 1.01; M 1.05; N 1.39; P 1.09; Q 1.34; R 1.19; S 1.42; T 0.862; V 1.25; W 1.55; Y 1.24
E30: A 2.03; D 2.25; F 2.05; G 1.78; H 2.06; I 2.17; K 1.93; L 2.28; M 2.24; N 1.83; P 2.04; Q 1.94; R 1.81; S 1.83; T 1.9; V 2.04; W 1.94; Y 2.13
E31: A 1.79; D 2.14; F 1.49; G 1.61; H 1.64; I 1.8; K 1.32; L 1.69; M 1.54
